For orientation: Km means the substrate concentration at which the rate is half of its maximum.

Substrate in this data set: CC(=O)C(=O)O
Briefly: cells, lysate or membranes. The data set is classed as biochemical, Lactiplantibacillus plantarum. Particulars: NADH, acetate buffer pH 5.6, 25 °C, no fructose 1,6-diphosphate, Table 2 prints 1,50.

B1: L. plantarum LDH (LpLDH, plLDH) (Lactiplantibacillus plantarum WCFS1; D94G) (protein)
chain: MSSMPNHQKVVLVGDGAVGSSYAFAMAQQGIAEEFVIVDVVKDRTKGDALDLEDAQAFTAPKKIYSGEYSDCKDADLVVITAGAPQKPGESRLGLVNKNLNILSSIVKPVVDSGFDGIFLVAANPVDILTYATWKFSGFPKDRVIGSGTSLDSSRLRVALGKQFNVDPRSVDAYIMGEHGDSEFAAYSTATIGTRPVRDVAKEQGVSDEDLAKLEDGVRNKAYDIINLKGATFYGIGTALMRISKAILRDENAVLPVGAYMDGQYGLNDIYIGTPAVIGGTGLKQIIESPLSADELKKMQDSAATLKKVLNDGLAELENK
notes: full length, TTG start changed to ATG, untagged, expressed in S. cerevisiae GRF18U; crude cell extract; homotetramer
For B1, the Km amounted to 1010 µM.
